Experimental data reported in a protein production outcome set (Wang et al. 2014).

Assay: label from the status in PepcDB records

| Sequence | protein production |
| --- | --- |
| MTNAIQDRLPRTTNSVEDTMALGARIAQGLSPGAVVALYGDLGTGKTHFVKGVAQGLGLPPAEVRSPTFTILAVHDDGDRPLYHFDAYRVQTPDEFVELGFETYVHGDGLTCIEWAGRVADLLPADTVPLQFHHVAPSTRRITLGAPLEHHHHHH | not failed |
| MVMAPLPPVESLSLRQAIAQMIVVRGAGYLFDYERPYPQWEADQTTLQRWIEAGIGGVILLGGSAAEVAQKTKQLQSWAEIPLLIAADIEEGVGQRFRGATEFPPPMAFGEIWRTDPHQAIALAETMGATTAQEALSLGINWVLAPVLDVNNNPHNPVINIRAFGETPDQVSALGTAFIRGAQQYAVLTTAKHFPGHGDTATDSHLALPTISHDDTRLNTVELPPFKAAIQGGVDAVMNAHLMIPAWDQQYPATLSPAILTGQLRHKLGFKGLIVTDALVMGGITQFAAPDTVVVQAIAAGADILLMPPDVDGAIIAIETAIKTGQLSESRIYESVERIWQAKQKILTATPSTFPQGISGDRPETRKTVAMVLERATKHQKSLVKISSFPDNFARNLIVVDSVLKSPFLRPNCPAIAIPQRHGYAAEIVELKTLPRLQLEAIPTLIQCFLRGNPFTEKLADPIDVLQKIAAQIPLQGVIFYGSPYFLEALQTTLPEIPWWFSYGQMAIAQAEICTSLWEEAPQAAPSAAEFI | not failed |
| MEKLVLGIIGIFFVISGFDYINNNKLGLGDKFKEGMISMGSIAISMVGIYSLSPLIGEGIGFLLTPISNFLGIDSSIFPSMFLAVDMGALGIAESLSSNIHMYWISGVIIASTLGATISFSIPLALGIIEEKYLEDLTTGLLYGIMTLPIAPIVAGLFLGVDIKLLLFNILPLIIFAILLAVFMNKFKDTTVKFFIKLGKLIQLVSILGLLVLGFLSIIGIKPIGSILPIDEALSVVGKIAIFLGGAYPLINFITEKFSKVLSKIGEKINIDEFSIAAFLGTLASNIILFQSFNKMSSKGRIALTAFSVSGAFVIGGQLGFVSLKTPEIINIYIASKLIAGITAMVVALIVHRKTEENLNDESQSEENIPVLES | failed |
| MASMDVEEFIGQNRQLADRVEAFRGFSESDKHWKGRREFIFRNMADFPEPQVDHLLALSMVWQNHVFMGCRYSSELLQRVMEMAEGIEVEDAPVFKTRDEIIRQQKQR | failed |
| MAVESAAVGVFDSGVGGLSVLREIRARLPSESLLYVADNAHVPYGEKSAEYIRERCERIGDFLLEQGAKALVLACNTATAAAAAELRERYPQVPLVAMEPAVKPAAAATRNGRVGVLATTGTLKSARFAALLDRFASDVQVFTQPCPGLVERIEAGDLYGPQTRALLERLLAPILEQGCDTLILGCTHYPFVKPLLAELIPAEMAVIDTGAAVARQLERVLSARALLASGQAATPRFWTSALPEEMERILPILWGSPESVGKLVV | failed |
| MQFSTTPTLEGLTIVEYCGVVTGEAILGANIFRDFFAGIRDIVGGRSGAYEKELRKAREIAFEELGSQARALGADAVVGIDIDYETVGQNGSMLMVSVSGTAVKTRR | not failed |
| MLFTPEGTPMARRLEDARILMYSHDTFGLGHLRRCRAIAHALVEDYRGLNILIISGATIAGAFDYRARVDFVKIPSVIKLRNGEYTSLASHIDLHETLKMRESSIRHTAETFQPDIFIVDKEPMGLKGEVEDTLAYLKARGTVLVLGLREIMDAPHLLDAEWKRNGIMQKIDQYYDSVWVYGPPDFYDPLIGLDVPVSLRRKMDFVGFLQRSVSKGKTSIHARKDNYLLVTTGGGGDGSDLVHDVMNAYEADPTLTQKALVVLGPYMPAAERAKLVQKGEAIPYIEVIEFDNHMEELIDGATGVVAMGGYNTYCEILSFDKPALIVPRVKPREEQLLRAKRASELGLVDMLLPEQSVDPAIMAAALKRLPSRLPPSKSGSNMHLEGLDHISQTVGRWLDGRATHLAVVGAE | failed |
| QSKTATVFLHGYNGGAYSTNYLIRKAEKAGAAQKALVVHVYKNGVMAFKGYWQKSIKNPMVQVVFQDNHASQKAQIYWLHQVLVQLKAKYGVKAYNAVGHSLGANDIVNQALKYGHDKRLPTLNKIVTIGGPFDGLTGFLSTQTEATVRRLDVKPSRFTKHFSEMLKYRHNFPDNVKLLNVYGDTNTGYNNDGFVGVASARSIRYLLRGKLTQYQEAFYSGEQAAHCALNQNPSVAHKMIAFLW | failed |
| VGVRRENATATGVLLIPDGPDCPRPYPILTWGPSTSAQRHVGQDKTIVNANGNTPLVTRLASQGYVLVSPDYLGLGDSDYPFHPYLHLFTEVSSTIDAVRAARDVLWHSNTPLSNKVMLSGFSQGGQAALAVQREIEAHQSLSQEFSLVASAPISGPYALSQTILDSWSGRNK | failed |
| MKNLNYGIIGLGKFGSVVADELIAGGHTVIVADKDEEALKSIQNPPSYAYILDSTNISALKEAGFHDVEVVIVSIGENVEKSILTLMALKDIGVKNIIAKATSNIHGQILSKLGATKVIYPEKESAKRLVKEFLTKDADYEVFDLSANTIRAIKINIDEKLAGNSLKHVAQNMKVISYKKLNSDWEILPDLETTTVYSGDVVILLGTVKELREFEH | failed |
| MQQFATLSLASLLMLGTFTAFAAENGDAPASGWHIDDSATKGASGQQGMFDGVRLTEQQRQQMRDLMHQSRQDKPAFNTEDVKAMHKLVTAETFDEAAVRAQITRMMSVQIERQIQMTRVRNQMYNLLTPAQKEILELKHKQRMKEMQQQISMFNQMVAPSSGTTNHTETDSPELEHHHHHH | not failed |
| MKRDGHTHTEFCPHGTHDDVEEMILKAIELDFDEYSIVEHAPLSSEFMKNTAGNQEAVTTASMSMSDLPYYFKKMNQMKKKYASDLLIHIGFEVDYLIGYEDFTRDFLNEYGPQTDDGVLSLHFLEGQGGFRSIDFTAEDYNEGIVQFYGGFEQAQLVYLAGVKQSIEADLGAFKPRRIGHISLCQKFQQFFGADGRDFTAEVIAEFEAILALVKKRGYELDFNTAGLFKPLCKETYPPKEIVTLARALEIPFVYGSDSHGVADIGRGYNTYCQKLEHHHHHH | not failed |
| MRGTTDEEDGVMNFSDVLMMSDDVLSSGEVEEDSFGFRFTGNDAPQMLCFGGGNQNDTDLLFSQPSFSPASPLSSRNNACVVNDQSFRSNKKTGSADGHDRVCDPKPGKRCKRDQKKSSLGNAKDDEDTGEVNPTMKVKELRSNGLCLVPLAWTVHVANTNGADLWSSAILSPLTSHTNSEPVEIVEVKSHKDK | failed |
| MFILSAQRLSGTQVFRRLAEGCTGYSVSSGCRQRRRCCPGAPQRPRRVRVNALQLQSGLADPLDPKSEAEVREHLRSNSPAERALGINYARYLDESTRYDILLEMMEDTDPQVRYAAVTQLATVGSHDRQRTLKAVRKILWNTEEDASVRAGAADVLGGLRFHEAFPDLEKLFHESKDWVVRFSIIAALGEMGVREAFPILVEALHANKEPLVQLAAIGALGELGDERARVYLEPLVNSSDASIVERARFALDALDARGSERT | not failed |
| MNFKLNNTLSNEINTLIIGIPEHLNQLERISFNHIDITESLERLKHQHIIGSKVGKIYTTAFDVQDQTYRLITVGLGNLKTRSYQDMLKIWGHLFQYIKSEHIEDTYLLMDSFISKYDQLSDVLMACGIQSERATYEFDHYKSSKKAPFKTNLNLISESLIELDFIHEGISIGQSINLARDFSNMPPNVLTPQTFAEDIVNHFKNTKVKVDVKDYDTLVSEGFGLLQAVGKGSKHKPRLVTITYNGKDKDEAPIALVGKGITYDSGGYSIKTKNGMATMKFDMCGAANVVGIIEAASRLQLPVNIVGVLACAENMINEASMKPDDVFTALSGETVEVMNTDAEGRLVLADAVFYANQYQPSVIMDFATLTGAAIVALGDDKAAAFESNSKVILNDILQISSEVDEMVFELPITATERASIKHSDIADLVNHTNGQGKALFAASFVTHFSGQTPHIHFDIAGPATTNKASYNGPKGPTGFMIPTIVQWLKQQ | not failed |
| MKMKILGISFGTKNGNNDTMCKVALKGAKEAGAEVEFIQMSSINIKHCTGCCACVKTLLSGKGSMCVLKDDFEWLLDKMKDADGIVVSDPIFEEGASGLFHTIMDRFGPRADRGNNIIGTKVAEAIGGKIPDSRMLNDKVISFMGIGGSDWGTRVQCEHAMLALIPMWKVIDNAWFPWAKELVMDDTRLVQVHQIGLNIVEAAKDFEKASYQGEEGVCPHCHNRLFYLEPGTKKAICALCGIVGELDTISGKTIFSFPEEQLGHAHDTLPGKFIHGDDIKKMEGHYAEVRKTQEFKERKTSYNFIETLTKEKQAGVSLG | failed |
| MFSIIIPIYNSENYLRYSIESVLNQSIGFKENIELILIDDGSVDSSPQICESFKNLYPNNIKIMKIENSGPSAARNCGLSNVSERSKFIGFLDSDDAFSQNALQSVYDFFCDSEHVNIAVLPVYYTGEKEGGHKLNNRFEKGTRVINILNDYKAIHFYIGGTFYRRHTLTSTVLFDESIKFWEDAIFFNQLLLKEKRYGAVAEGKYFYRKRKEQDSLVDRSWFNKKRYTYLLNECYMTLLMDSFNKYDIVLPYLQFLIVYHIKLFLYPNYRDVYKSVLDQQEQRVFVDDFIKVLKFIDPQFIKEQDMPMYYKEFMFHLLKENTEALENIKKERVLHSSCTVTSAKIKGLRLELTGHFINQYYEMKENDRIYIKYFKRLKKCKRKELKKTIEVWGYKLRDFRYAGFVVEIPIWAFAFDFVLKTPNDSLELNHVNIFKSLLTRVFKKRLEHHHHHH | not failed |
| MRFLAYFGHLNIDVLISVDSIPREGSVNVKDLRPRFGGTAGNFAIVAQKFRIPFDLYSAVGMKTHREYLAMIESMGINTGHVEKFEDESGPICYIATDGKKQVSFMHQGAMAAWAPQLADEYEYVHFSTGPNYLDMAKSIRSKIIFDPSQEIHKYSKDELKKFHEISYMSIFNDHEYRVFREMTGLSSPKVTTIVTNGERGSSLFMDGKKYDFPAIPSSGDTVGAGDSFRAGLYLALYNRRSIEKGMIYGTIIAHHVIDDGIENFSLNMEDLERETENYRRMFTKRS | not failed |
| MPGIDIVIVNWNSGNQLRECLRSIGNLVGEAEPLTVTVVDNASCDGSADGLPEPSCPLRVIRNRANLGFGRASNLGAREGSADYLLFLNPDTRLHPGALSIPLGFMESETGRHVGICGVQCLDETGGVARCCARFPTAWRLVGQALGLDRLFPRWIPPHFLGEWPHDSDRDVDQVIGAFFFVRRAVFEQLGGFDERFFVYYEDLDFALRARRAGWGSRYLAGARIFHRGGGVSRQISARRLHYLTHSKLRYARKHFAGIDAFLVSAAVLLLEPLARSAYALGRGRPGEFADTWKAFGGLYASLCRPGENGRLEHHHHHH | failed |
| MQTIIRVEKLAKTFNQHQALHAVDLNIHHGEMVALLGPSGSGKSTLLRHLSGLITGDKSVGSHIELLGRTVQREGRLARDIRKSRAHTGYIFQQFNLVNRLSVLENVLIGALGSTPFWRTCFSWFTGEQKQRALQALTRVGMVHFAHQRVSTLSGGQQQRVAIARALMQQAKVILADEPIASLDPESARIVMDTLRDINQNDGITVVVTLHQVDYALRYCERIVALRQGHVFYDGSSQQFDNERFDHLYRSINRVEENAKAA | failed |
